# Results reported in PMC13480645.
# Biological target: MERS-CoV S2 stem helix peptide (MERS-CoV)
# Assay: BLI
# S2P6 (antibody), sequence (VH): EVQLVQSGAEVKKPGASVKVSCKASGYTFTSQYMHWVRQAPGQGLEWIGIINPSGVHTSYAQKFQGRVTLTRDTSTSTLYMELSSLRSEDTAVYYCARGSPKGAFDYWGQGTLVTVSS
# S2P6 (antibody), sequence (VL): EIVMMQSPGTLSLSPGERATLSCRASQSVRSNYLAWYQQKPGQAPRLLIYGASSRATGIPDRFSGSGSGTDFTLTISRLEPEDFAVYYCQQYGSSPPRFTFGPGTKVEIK
substance,measurement,value
S2P6 (antibody),Kd,0.723 nM
same,kon,315000 M⁻¹ s⁻¹
